These results are taken from publication PMC7102939, “N 1-Methylpseudouridine substitution enhances the performance of synthetic mRNA switches in cells”.

Data set [1] deals with T1, MS2CP (MS2 coat protein) (bacteriophage MS2, UniProt P03612 2-130). The experiment in a line: EMSA; 6 mM Mg2+, 2 mM spermidine; EMSA, 1 uM RNA, 4 C 30 min, 12% native PAGE at 4 C; 1x from 5x buffer: U1A 20 mM HEPES pH 7.5, 80 mM KCl, 20 mM NaCl, 2 mM DTT; MS2CP 40 mM HEPES pH 7.5, 10 mM. Conditions: protein: recombinant; tags: His; chain copies: 2; two hairpins. Background: A gel shift assay detects complexes by their altered migration in electrophoresis.

For data set [2], the target named is T1, MS2CP (MS2 coat protein). The data set is described as follows: EMSA; 6 mM Mg2+, 2 mM spermidine; affinity similar to native U; EMSA, 1 uM RNA, 4 C 30 min, 12% native PAGE at 4 C; 1x from 5x buffer: U1A 20 mM HEPES pH 7.5, 80 mM KCl, 20 mM NaCl, 2 mM DTT; MS2CP 40 mM HEPES pH 7.5, 10 mM. The settings on record: protein: recombinant; tags: His; chain copies: 2; two hairpins.

T1 sequence (P03612 2-130): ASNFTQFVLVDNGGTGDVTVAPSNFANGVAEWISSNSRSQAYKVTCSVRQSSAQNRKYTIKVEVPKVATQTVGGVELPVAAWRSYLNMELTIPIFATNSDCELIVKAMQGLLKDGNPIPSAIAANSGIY

B1: 2x MS2 aptamer, native U (structured_RNA)
RNA: GGGAGCAGGUGAGGAUCACCCAUCUGCCACGAGCGAGGUGAGGAUCACCCAUCUCGCUCGUGUUCCC
B1: the binding result in data set [1] was “binds”.

B2: 2x MS2 aptamer, m1Ψ (structured_RNA)
RNA: GGGAGCAGGUGAGGAUCACCCAUCUGCCACGAGCGAGGUGAGGAUCACCCAUCUCGCUCGUGUUCCC
modifications: all U replaced by N1-methylpseudouridine
For the molecule B2, the binding result in data set [2] is “binds”.
